From publication PMC9467508, “DNA passes through cohesin’s hinge as well as its Smc3–kleisin interface” (eLife, 2022)
Residue numbers refer to the chain shown, from its start.

Key:
Assay in all cases: cross-linking; BMOE (0.64 mM) cross-linking of engineered cysteine pairs; 0.7 uM cohesin (Smc1, Smc3, and Scc1) and Scc2 in 25 mM HEPES pH 7.5, 50 mM NaCl, 1 mM MgCl2, 1 mM TCEP, 5% glycerol; 24°C, 5 min; with or without 10 mM ATP and 60 nM supercoiled pUC19; SDS-PAGE
Conditions in all cases: both partners purified
[1] = target: T1, cohesin (Smc1-His E1102C, Smc3, Scc1-StrepII) (S. cerevisiae, UniProt P32908 1-1225; P47037 1-1230; Q12158 1-566, E1102C)
T1 construct: Smc1, cohesin subunit, S. cerevisiae; Smc3, cohesin subunit, S. cerevisiae; Scc1 (kleisin subunit of cohesin), S. cerevisiae; Tied to the cross-linking experiment by its substitution; also called Smc1E1102C; cohesin (Smc1, Smc3, and Scc1); source: prepared as described in Collier et al., 2020 (pACEbac1i plasmid); purified; copies: + +

[2] = target: T2, cohesin (Smc1, Smc3 S72C, Scc1-StrepII) (S. cerevisiae, UniProt P32908 1-1225; P47037 1-1230; Q12158 1-566, S72C)
T2 construct: Smc1, cohesin subunit, S. cerevisiae; Smc3, cohesin subunit, S. cerevisiae; Scc1 (kleisin subunit of cohesin), S. cerevisiae; Tied to the cross-linking experiment by its substitution; also called cohesin (Smc1, Smc3, and Scc1); source: prepared as described in Collier et al., 2020 (pACEbac1i plasmid); purified; copies: + +

[3] = target: T3, cohesin (Smc3 K1004C, Smc1, Scc1-StrepII) (S. cerevisiae, UniProt P32908 1-1225; P47037 1-1230; Q12158 1-566, K1004C)
T3 construct: Smc1, cohesin subunit, S. cerevisiae; Smc3, cohesin subunit, S. cerevisiae; Scc1 (kleisin subunit of cohesin), S. cerevisiae; Tied to the cross-linking experiment by its substitution; also called cohesin (Smc1, Smc3, and Scc1); source: prepared as described in Collier et al., 2020 (pACEbac1i plasmid); purified; copies: + +
T3 sequence (P32908 whole entry, stated change not applied, chain 1 of 3): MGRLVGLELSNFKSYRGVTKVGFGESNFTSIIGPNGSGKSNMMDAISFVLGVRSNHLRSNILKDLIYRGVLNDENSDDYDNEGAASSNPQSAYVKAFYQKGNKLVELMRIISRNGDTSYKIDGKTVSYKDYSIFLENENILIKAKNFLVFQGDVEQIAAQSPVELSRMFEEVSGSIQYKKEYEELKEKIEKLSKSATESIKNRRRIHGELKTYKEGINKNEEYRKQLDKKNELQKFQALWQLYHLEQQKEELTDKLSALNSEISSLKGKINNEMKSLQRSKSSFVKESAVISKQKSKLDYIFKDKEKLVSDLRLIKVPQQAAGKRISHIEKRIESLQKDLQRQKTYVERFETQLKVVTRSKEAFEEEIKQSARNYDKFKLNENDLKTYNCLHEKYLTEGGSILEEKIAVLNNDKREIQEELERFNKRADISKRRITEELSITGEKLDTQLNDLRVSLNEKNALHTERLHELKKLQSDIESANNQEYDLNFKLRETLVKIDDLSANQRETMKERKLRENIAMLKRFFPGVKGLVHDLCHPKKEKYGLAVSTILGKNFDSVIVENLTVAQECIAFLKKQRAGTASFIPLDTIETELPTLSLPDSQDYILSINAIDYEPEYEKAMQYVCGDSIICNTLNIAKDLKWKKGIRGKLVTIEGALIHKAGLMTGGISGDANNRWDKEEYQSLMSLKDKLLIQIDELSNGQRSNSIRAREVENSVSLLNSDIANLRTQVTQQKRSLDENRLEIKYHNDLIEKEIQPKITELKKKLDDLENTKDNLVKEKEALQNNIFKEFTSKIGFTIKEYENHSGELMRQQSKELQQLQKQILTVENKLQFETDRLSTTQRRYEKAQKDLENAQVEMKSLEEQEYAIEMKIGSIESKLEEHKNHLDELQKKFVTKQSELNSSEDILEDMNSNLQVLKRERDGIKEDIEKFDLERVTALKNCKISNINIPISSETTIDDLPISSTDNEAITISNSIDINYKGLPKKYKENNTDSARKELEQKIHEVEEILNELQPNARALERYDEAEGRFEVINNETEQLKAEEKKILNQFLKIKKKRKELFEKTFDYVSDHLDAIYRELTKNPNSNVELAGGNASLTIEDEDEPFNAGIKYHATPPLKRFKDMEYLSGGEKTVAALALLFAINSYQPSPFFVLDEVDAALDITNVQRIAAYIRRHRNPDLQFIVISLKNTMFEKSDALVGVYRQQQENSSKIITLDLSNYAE
T3 sequence (P47037 whole entry K1004C, chain 2 of 3): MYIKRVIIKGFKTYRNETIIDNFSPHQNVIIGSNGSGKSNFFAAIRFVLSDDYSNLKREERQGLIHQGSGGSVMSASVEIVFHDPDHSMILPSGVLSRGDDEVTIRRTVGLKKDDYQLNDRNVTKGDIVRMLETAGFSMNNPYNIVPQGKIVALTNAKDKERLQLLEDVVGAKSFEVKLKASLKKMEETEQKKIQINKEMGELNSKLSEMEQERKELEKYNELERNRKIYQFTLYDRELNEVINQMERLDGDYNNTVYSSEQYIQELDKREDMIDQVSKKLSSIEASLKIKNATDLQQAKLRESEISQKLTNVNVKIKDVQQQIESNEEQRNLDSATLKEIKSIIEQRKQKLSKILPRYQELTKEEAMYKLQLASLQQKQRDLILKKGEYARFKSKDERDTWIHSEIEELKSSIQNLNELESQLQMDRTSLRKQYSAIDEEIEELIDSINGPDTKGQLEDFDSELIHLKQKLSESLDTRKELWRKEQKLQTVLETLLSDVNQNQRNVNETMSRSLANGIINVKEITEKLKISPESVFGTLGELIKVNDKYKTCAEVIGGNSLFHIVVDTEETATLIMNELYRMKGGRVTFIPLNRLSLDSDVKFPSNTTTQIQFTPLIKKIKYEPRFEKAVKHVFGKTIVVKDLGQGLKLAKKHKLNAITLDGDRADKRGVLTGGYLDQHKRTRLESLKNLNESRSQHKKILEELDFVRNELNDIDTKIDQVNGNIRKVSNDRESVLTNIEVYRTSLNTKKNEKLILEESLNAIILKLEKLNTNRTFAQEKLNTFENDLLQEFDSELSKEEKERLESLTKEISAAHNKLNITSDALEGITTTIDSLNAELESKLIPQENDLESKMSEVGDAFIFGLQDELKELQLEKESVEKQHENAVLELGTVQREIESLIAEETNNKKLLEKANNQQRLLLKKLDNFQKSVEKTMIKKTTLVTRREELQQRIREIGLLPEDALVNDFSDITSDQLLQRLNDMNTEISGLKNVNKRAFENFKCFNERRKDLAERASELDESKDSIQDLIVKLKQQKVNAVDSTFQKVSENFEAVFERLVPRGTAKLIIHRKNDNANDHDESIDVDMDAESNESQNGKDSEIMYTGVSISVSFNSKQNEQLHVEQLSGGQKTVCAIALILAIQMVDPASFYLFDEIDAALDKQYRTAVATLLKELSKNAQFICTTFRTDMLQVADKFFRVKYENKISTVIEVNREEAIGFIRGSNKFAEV
T3 sequence (Q12158 whole entry, chain 3 of 3): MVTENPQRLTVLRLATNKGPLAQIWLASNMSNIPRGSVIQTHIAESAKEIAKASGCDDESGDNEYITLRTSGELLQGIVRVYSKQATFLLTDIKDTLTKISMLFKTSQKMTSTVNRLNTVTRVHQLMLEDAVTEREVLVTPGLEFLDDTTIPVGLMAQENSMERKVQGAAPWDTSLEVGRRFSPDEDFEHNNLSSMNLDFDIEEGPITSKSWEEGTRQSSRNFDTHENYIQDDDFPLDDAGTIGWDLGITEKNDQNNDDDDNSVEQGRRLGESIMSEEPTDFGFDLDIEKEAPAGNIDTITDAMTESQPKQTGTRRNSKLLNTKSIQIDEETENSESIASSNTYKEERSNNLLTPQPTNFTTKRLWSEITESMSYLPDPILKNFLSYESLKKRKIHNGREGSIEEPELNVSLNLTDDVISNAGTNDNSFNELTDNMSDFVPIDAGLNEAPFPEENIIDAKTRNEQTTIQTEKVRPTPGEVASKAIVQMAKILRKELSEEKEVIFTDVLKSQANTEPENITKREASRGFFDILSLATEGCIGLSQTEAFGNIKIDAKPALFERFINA

T2 sequence (P32908 whole entry, chain 1 of 3): as the sequence (P32908 whole entry, stated change not applied, chain 1 of 3) above
T2 sequence (P47037 whole entry S72C, chain 2 of 3): as the sequence (P47037 whole entry K1004C, chain 2 of 3) above, with S72C, C1004K counted along it
T2 sequence (Q12158 whole entry, chain 3 of 3): as the sequence (Q12158 whole entry, chain 3 of 3) above
T1 sequence (P32908 whole entry E1102C, chain 1 of 3): as the sequence (P32908 whole entry, stated change not applied, chain 1 of 3) above, with E1102C counted along it
T1 sequence (P47037 whole entry, chain 2 of 3): as the sequence (P47037 whole entry K1004C, chain 2 of 3) above, with C1004K counted along it
T1 sequence (Q12158 whole entry, chain 3 of 3): as the sequence (Q12158 whole entry, chain 3 of 3) above

B1: Scc2 133-1493-StrepII T1281C (domain or fragment, S. cerevisiae, UniProt Q04002 133-1493, looked up)
chain: KSEIVSRPEAKHKLESVTSNAGNLSFNDNSSNKKTKTSTGVTMTQANLAEQYLNDLKNILDIVGFDQNSAEIGNIEYWLQLPNKKFVLTTNCLTKLQMTIKNITDNPQLSNSIEITWLLRLLDVMVCNIKFSKSSLKMGLDDSMLRYIALLSTIVLFNIFLLGKNDSNLHRESYIMEPVNFLSDLIESLKILTIEYGSLKIEFDTFQEALELLPKYIRNGPFLDDNVTAKLVYIFSDLLMNNDIEATTNIQFQSFWDNVKRISSDILVSLFGSFDQQRGFIIEELLSHIEKLPTKRIQKKLRKVGNQNIYITDFTFTLMSMLENINCYSFCNQMKDIAPENIDLLKNEYKKQEEFLFNIVEHINDTILERFFKNPSALRYVIDNFVQDLLLLISSPQWPVTEKILSSLLKRLLSVYSPSMQVSANIETICLQLIGNIGSTIFDIKCSTRDHEDNNLIKMINYPETLPHFFKSFEECIAYNETIKCRRSATRFLWNLRLGTILILEEYTKDAKEQIITVDNELKKILEQIKDGGLGPELENREADFSTIKLDYFSILHAFELLNLYDPYLKLILSLLAKDKIKLRSTAIKCLSMLASKDKVILSNPMVKETIHRRLNDSSASVKDAILDLVSINSSYFEFYQQINNNYNDDSIMVRKHVLRINEKMYDETNDIVTKVYVIARILMKIEDEEDNIIDMARLILLNRWILKVHEVLDQPEKLKEISSSVLLVMSRVAIMNEKCSQLFDLFLNFYLLNKEAHSKEAYDKITHVLTILTDFLVQKIVELNSDDTNEKNSIVDKQNFLNLLAKFADSTVSFLTKDHITALYPYMVSDEKSDFHYYILQVFRCTFEKLANFKQKFLYDLETTLLSRLPKMNVREIDEAMPLIWSVATHRHDTARVAKACSSCLSHLHPYINKANNEEAAIVVDGKLQRLIYLSTGFARFCFPKPSNDKIAFLQEGETLYEHITKCLLVLSKDKITHVIRRVAVKNLTKLCGNHPKLFNSRHVLHLLDKEFQSDQLDIKLVILESLYDLFLLEERKSVRNTGVNSTLSSNSILKKKLLKTNRVEFANDGVCSALATRFLDNILQLCLLRDLKNSLVAIRLLKLILKFGYTNPSHSIPTVIALFASTSQYIRHVAYELLEDLFEKYECLVFSSLSRGVTKAIHYSIHTDEKYYYKHDHFLSLLEKLCGTGKKNGPKFFKVLKRIMQSYLDDITDLTSTNSSVQKSIFVLCTNISNITFVSQYDLVSLLKTIDLTTDRLKEVIMDEIGDNVSSLSVSEEKLSGIILIQLSLQDLGTYLLHLYGLRDDVLLLDIVEESELKNKQLPAKKPDISKFSAQLENIEQYSSNGKLLTYFRKHVKDT
notes: Scc2, cohesin loader subunit, S. cerevisiae, residues 133-1493; pACEbac1 is a baculovirus transfer vector, so insect cells are surmised; also called Scc2T1281C; source: prepared as described in Collier et al., 2020 (pACEbac1 plasmid); purified
binding result [1]: binds

B2: Scc2 133-1493-StrepII E819C (domain or fragment, S. cerevisiae, UniProt Q04002 133-1493, looked up)
chain: B1 chain with E687C, C1149T
notes: Scc2, cohesin loader subunit, S. cerevisiae, residues 133-1493; also called Scc2E819C; source: prepared as described in Collier et al., 2020 (pACEbac1 plasmid); purified
binding result [2]: binds

B3: Scc2 133-1493-StrepII D369C (domain or fragment, S. cerevisiae, UniProt Q04002 133-1493, looked up)
chain: B1 chain with D237C, C1149T
notes: Scc2, cohesin loader subunit, S. cerevisiae, residues 133-1493; also called Scc2D369C; source: prepared as described in Collier et al., 2020 (pACEbac1 plasmid); purified
binding result [3]: binds
